Laboratory results taken from patent US20230050846A1, “TREATMENT OF HEPATIC AND CARDIOVASCULAR DISORDERS” (LIFESEARCH, priority 2019, published 2023).

Target: cell surface F1Fo-ATPase (human)
Assay: cell-based or functional assay

Q: For “apoA-I purified from human plasma (from UniProt P02647 25-267) (ligand)”, which HDL endocytosis by HepG2 cells (HDL-Alexa568 uptake), apoA-I 10 µg/mL, versus non-stimulated cells is on record?
A: The HDL endocytosis by HepG2 cells (HDL-Alexa568 uptake), apoA-I 10 µg/mL, versus non-stimulated cells was 45%.
